Source: publication PMC7773321

Assays:
Neutrophil elastase = Neutrophil elastase (UniProt P08246)
UniProt P08246, sequence (P08246 30-267): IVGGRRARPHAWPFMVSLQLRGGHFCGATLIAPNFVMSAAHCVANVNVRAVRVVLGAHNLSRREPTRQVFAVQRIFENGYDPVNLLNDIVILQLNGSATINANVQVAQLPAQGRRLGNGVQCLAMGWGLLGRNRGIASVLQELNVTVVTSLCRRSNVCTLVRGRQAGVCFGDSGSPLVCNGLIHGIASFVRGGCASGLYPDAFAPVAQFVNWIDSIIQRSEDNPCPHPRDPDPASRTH

Substance | IC50 of inhibition of NE activity (fluorometric NE activity assay, 25 nM NE, 0-50 nM ecotin, 37°C) (Neutrophil elastase) [nM] | cleavage of the FRET peptide Dabcyl-…-Edans by factor Xa with 15 nM ecotin, relative fluorescence units after 60 min (0-60 min followed; 350 RFU without ecotin) (Factor Xa) [RFU]
Ecotin from Campylobacter rectus, C-terminal His6 fusion (natural protein) | 4.49 | 48
Ecotin from Campylobacter showae, C-terminal His6 fusion (natural protein) | 4.78 | 17.7
Ecotin from E. coli, C-terminal His6 fusion (from UniProt P23827 21-162) (natural protein) | 4.64 | 21.3
